These results are taken from patent US20190330358A1 (EUTILEX, published 2019).

Test [1] concerns the target T1, Glutathione S-transferase (GST)-tagged AITR (human, UniProt Q9Y5U5 26-139).
T1 construct: also called GST-AITR antigen; GST-AITR analyte; not shown: Glutathione S-transferase (GST) tag
T1 sequence (looked up): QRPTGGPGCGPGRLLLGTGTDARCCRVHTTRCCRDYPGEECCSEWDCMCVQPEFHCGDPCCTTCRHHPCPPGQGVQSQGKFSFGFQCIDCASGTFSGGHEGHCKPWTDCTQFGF
Put plainly: SPR, Fab against the AITR antigen. Background: In SPR one partner is held on a chip, and binding of the other changes the refractive index at the surface.

For test [2], the target named is T1, Glutathione S-transferase (GST)-tagged …. Put plainly: KD ratio against parental IRTCA-A, repeated from the SPR of Table 3.
For test [3] the target is unchanged. Put plainly: SPR, Fab against the AITR antigen; ratio against parental IRTCA-A.
Test [4] has the same target. Briefly: KD ratio against parental IRTCA-A, repeated from the SPR of Table 3. The source holds these as a separate data set.
Test [5] shares this target. Described as above. The source holds these as a separate data set.
The target in a further test is T2, R12 AA 75-139.
T2 construct: also called GST fusion protein construct R12 (AITR deletion mutant)
T2 GST fusion protein: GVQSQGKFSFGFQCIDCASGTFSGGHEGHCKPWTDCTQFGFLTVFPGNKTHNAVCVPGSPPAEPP
Briefly: Western blot and ELISA on GST-AITR deletion constructs. The method, then: Binding of the anti-AITR antibodies IRTCA-A (A27), H1F1, H1F1M69 and H1F1M74 to the GST-fusion proteins R1-R12 was assessed using Western blot analysis, in which the GST-fusion proteins were resolved by 12% SDS-PAGE and subjected to immunoblotting using the antibodies IRTCA-A, H1F1, H1F1M69 and H1F1M74. Anti-Human IgG-HRP (1:5000; Jackson Laboratories, Bar Harbor, Me.) was used as the secondary antibody. Detection of chemiluminescence was obtained by using SuperSignal West Pico Chemiluminescent Substrate (Pierce, Rockford, Ill.).
Background: A western blot detects proteins with antibodies after separation by electrophoresis.

For test [6], the target named is T1, Glutathione S-transferase (GST)-tagged …. Put plainly: SPR (Biacore T200), antibody captured by anti-human IgG(Fc), GST-AITR analyte 3.12-100 nM. The method, then: This example assesses the ability of mutant anti-AITR antibodies to bind to an AITR antigen recognized by the parent antibody, H1F1. Surface plasmon resonance was used in order to determine the ability of mutant anti-AITR antibodies to bind to AITR.
A Biacore T200 with a CMS sensor chip was run using HBS-EP running buffer at pH 7.4 and 3M magnesium chloride regeneration buffer. Anti-human IgG(Fc) antibodies were immobilized to the CMS chip via amine coupling and 6 minute injections at a flow rate of 5 μL/minute were performed with an immobilization buffer of 10 mM sodium acetate at pH 5.0. The capture antibodies tested were parent antibody H1F1 and mutant antibodies M69 and M74. Glutathione S-transferase (GST)-tagged AITR analyte was injected at concentrations of 3.12, 6.25, 12.5, 25, 50 and 100 nM, with an association time of 150 seconds and a dissociation time of 240 seconds.

For test [7], the target named is T3, human AITR expressed on the cell surface (human, UniProt Q9Y5U5 26-241).
T3 sequence (looked up): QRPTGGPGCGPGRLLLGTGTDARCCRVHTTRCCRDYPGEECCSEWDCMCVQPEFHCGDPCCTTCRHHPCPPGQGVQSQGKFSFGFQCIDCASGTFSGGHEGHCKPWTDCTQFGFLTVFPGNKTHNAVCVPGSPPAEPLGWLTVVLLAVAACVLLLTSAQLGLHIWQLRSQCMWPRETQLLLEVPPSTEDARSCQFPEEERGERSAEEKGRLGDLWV
Put plainly: cell-based or functional assay.

Some results are limits rather than exact numbers.

B1: Parental IRTCA-A Fab (Fab, V domains shown)
VH: QVQLVQSGTQVKMPGASVKVSCKASGYTFDDYGIGWVRQAPGQGLEWMGWISPYTHRTNSSPKLQDRVTMTTDTSTSTAYMELRSLRSDDTAVYYCARDGTYYDFWSGYFDNGAFDIWGQGTLVTVSS
VL: QSVVTQPPSVSAAPGQKVTISCSGSTSNIGNNYVSWYQQLPGTAPKLLIYDNYKRPSGIPDRFSGSKSGTSATLGITGLRTGDEADYFCGTWDSSLNAWVFGGGTKLTVL
Usually Kd stands for the constant that tells how readily two partners part at equilibrium. A higher Kd goes with a looser complex. One may read the koff as the rate constant with which the complex falls apart. High values mean a short-lived complex, low ones a long-lived complex. As a reminder, the kon is a measure of how fast the partners come together. In test [1], B1 returned a Ka of 8.74e+06 M⁻¹, a Kd of 114 nM, a koff of 0.00134 s⁻¹ and a kon of 11700 M⁻¹ s⁻¹. In addition, the “KD Ratio” value in test [2] stood at 1 fold. Moreover, in test [3], the “KD Ratio” value came to 1 fold. Also, the “KD Ratio” value in test [4] came to 1 fold. For the same molecule, the “KD Ratio” value in test [5] was determined as 1 fold.

B2: IRTCA-A (A27) anti-AITR monoclonal antibody (antibody, V domains shown)
VH: QVQLVQSGTQVKMPGASVKVSCKASGYTFDDYGIGWVRQAPGQGLEWMGWISPYTHRTNSSPKLQDRVTMTTDTSTSTAYMELRSLRSDDTAVYYCARDGTYYDFWSGYFDNGAFDIWGQGTLVTVSS
VL: QSVVTQPPSVSAAPGQKVTISCSGSTSNIGNNYVSWYQQLPGTAPKLLIYDNYKRPSGIPDRFSGSKSGTSATLGITGLRTGDEADYFCGTWDSSLNAWVFGGGTKLTVL
notes: Monoclonal antibody form, detected with anti-human IgG-HRP; constant regions not specified for this antibody
With B2, the binding result with R12 AA 75-139 was “no binding”.

B3: H1F1.M69 (H1F1.H2.J1/H1F1.L3.J1) (antibody, V domains shown)
VH: QVQLVQSGAQVKMPGESLKVSCKASGYTFTDYGMGWVRQAPGQGLEWMGWISPYTGRTNSSDKFQGRVTMTRDTSTSTAYMELRSLRSEDTAVYYCARDGTYYDFWSGYFDNNAFDIWGQGTLVTVSS
VL: QSVVTQPPSVSGAPGQRVTISCSGSTSNIGNNYVSWYQQLPGTAPKLLIYDNYKRPSGVPDRFSGSKSGTSASLAITGLQTEDEADYYCGTWDSSLNAWVFGGGTKLTVL
notes: Made in Expi293 cells from HC and LC DNA
B3 showed a Kd in test [6] of 0.657 nM. Besides, in the test with R12 AA 75-139, the binding result is listed as “no binding”.

B4: IRTCA-A10 (Clone H1A10) Fab (Fab, V domains shown)
VH: QVQLVQSGTQVKMPGASVKVSCKASGYTFDDYGIGWVRQAPGQGLEWMGWISPYTHRTNSSPKLQDRVTMTTDTSTSTAYMELRSLRSDDTAVYYCARDGTYYDFWSGYFDNAAFDSWGQGTLVTVSS
VL: QSVVTQPPSVSAAPGQKVTISCSGSTSNIGNNYVSWYQQLPGTAPKLLIYDNYKRPSGIPDRFSGSKSGTSATLGITGLRTGDEADYFCGTWDSSLNAWVFGGGTKLTVL
B4: in test [1], the Ka stood at 7.34e+07 M⁻¹, the Kd stood at 13.6 nM, the koff stood at 0.000565 s⁻¹ and the kon stood at 41500 M⁻¹ s⁻¹. In test [2], the “KD Ratio” value is 8.4 fold. Moreover, the “KD Ratio” value in test [3] was determined as 8.38 fold. Further, the “KD Ratio” value in test [4] is 8.4 fold. The “KD Ratio” value in test [5] is 8.4 fold.

B5: IRTCA-A14 (Clone H2F8) Fab (Fab, V domains shown)
VH: QVQLVQSGTQVKMPGASVKVSCKASGYTFDDYGIGWVRQAPGQGLEWMGWISPYTHRTNSSPKLQDRVTMTTDTSTSTAYMELRSLRSDDTAVYYCARDGTYYDFWSGYFDTAAFDIWGQGTLVTVSS
VL: QSVVTQPPSVSAAPGQKVTISCSGSTSNIGNNYVSWYQQLPGTAPKLLIYDNYKRPSGIPDRFSGSKSGTSATLGITGLRTGDEADYFCGTWDSSLNAWVFGGGTKLTVL
In test [1], B5 registered a Ka of 2.64e+08 M⁻¹, a Kd of 3.79 nM, a koff of 0.00027 s⁻¹ and a kon of 71100 M⁻¹ s⁻¹. The “KD Ratio” value in test [2] amounted to 30.1 fold. Moreover, the “KD Ratio” value in test [3] was found to be 30.1 fold. Moreover, the “secretion of IFN-γ by CD4+ T cells at 0.5 µg, against IRTCA-A” value (“secretion of IFN-γ by CD4+ T cells” for short) in test [7] was at least 200%. For the same molecule, the “KD Ratio” value in test [4] was determined as 30.1 fold. Also, the “KD Ratio” value in test [5] was found to be 30.1 fold.

B6: H1F1.M74 (H1F1.H8/H1F1.L3.J2) (antibody, V domains shown)
VH: QVQLVQSGAQVKMPGESLKVSCKASGYTFDDYGMGWVRQAPGQCLEWMGWISPYTGRTNSSDKFQGRVTMTRDTSTSTAYMELRSLRSEDTAVYYCARDGTYYDFWSGYFDNNAFDIWGQGTLVTVSS
VL: QSVVTQPPSVSGAPGQRVTISCSGSTSNIGNNYVSWYQQLPGTAPKLLIYDNYKRPSGVPDRFSGSKSGTSASLAITGLQSEDEADYYCGSWESGSNAYKFGGGTKLTVL
notes: as for B3
As to B6, in test [6], binding was put at a Kd of 0.966 nM.

B7: IRTCA-A15 (Clone H1F1) Fab (Fab, V domains shown)
VH: QVQLVQSGTQVKMPGASVKVSCKASGYTFDDYGIGWVRQAPGQGLEWMGWISPYTHRTNSSPKLQDRVTMTTDTSTSTAYMELRSLRSDDTAVYYCARDGTYYDFWSGYFDNNAFDIWGQGTLVTVSS
VL: QSVVTQPPSVSAAPGQKVTISCSGSTSNIGNNYVSWYQQLPGTAPKLLIYDNYKRPSGIPDRFSGSKSGTSATLGITGLRTGDEADYFCGTWDSSLNAWVFGGGTKLTVL
In test [1], B7 registered a Ka of 3.9e+08 M⁻¹, an equilibrium dissociation constant (Kd) of 2.57 nM, a koff of 0.000334 s⁻¹ and a kon of 130000 M⁻¹ s⁻¹. Further, the “KD Ratio” value in test [2] came out at 44.4 fold. The “KD Ratio” value in test [3] worked out at 44.4 fold. Besides, the “secretion of IFN-γ by CD4+ T cells” value in test [7] is at least 200%. In addition, the “KD Ratio” value in test [4] stood at 44.4 fold. Also, the “KD Ratio” value in test [5] was 44.4 fold.

B8: IRTCA-A1 (Clone L1E9) Fab (Fab, V domains shown)
VH: QVQLVQSGTQVKMPGASVKVSCKASGYTFDDYGIGWVRQAPGQGLEWMGWISPYTHRTNSSPKLQDRVTMTTDTSTSTAYMELRSLRSDDTAVYYCARDGTYYDFWSGYFDNGAFDIWGQGTLVTVSS
VL: QSVVTQPPSVSAAPGQKVTISCSGSTSNIGNNYVSWYQQLPGTAPKLLIYDNYKRPSGIPDRFSGSKSGTSATLGITGLRTGDEADYFCGSWESGSNAYKFGGGTKLTVL
In test [1], B8 displayed a Ka of 7.18e+07 M⁻¹, a Kd of 13.9 nM, a koff of 0.000412 s⁻¹ and a kon of 29600 M⁻¹ s⁻¹. Moreover, in test [2], the “KD Ratio” value stood at 8.2 fold. For the same molecule, the “KD Ratio” value in test [3] was 8.2 fold. Moreover, the “KD Ratio” value in test [4] worked out at 8.2 fold. The “KD Ratio” value in test [5] came out at 8.2 fold.

B9: IRTCA-A12 (Clone H2A10) Fab (Fab, V domains shown)
VH: QVQLVQSGTQVKMPGASVKVSCKASGYTFDDYGIGWVRQAPGQGLEWMGWISPYTHRTNSSPKLQDRVTMTTDTSTSTAYMELRSLRSDDTAVYYCARDGTYYDFWSGYFDNATFDFWGQGTLVTVSS
VL: QSVVTQPPSVSAAPGQKVTISCSGSTSNIGNNYVSWYQQLPGTAPKLLIYDNYKRPSGIPDRFSGSKSGTSATLGITGLRTGDEADYFCGTWDSSLNAWVFGGGTKLTVL
In test [1], B9 yielded a Ka of 2.42e+08 M⁻¹, a Kd of 4.13 nM, a koff of 0.000288 s⁻¹ and a kon of 69700 M⁻¹ s⁻¹. In addition, the “KD Ratio” value in test [2] came out at 27.6 fold. Also, in test [3], the “KD Ratio” value is 27.6 fold. The “secretion of IFN-γ by CD4+ T cells” value in test [7] was at least 200%. Moreover, the “KD Ratio” value in test [4] was 27.6 fold. Moreover, the “KD Ratio” value in test [5] stood at 27.6 fold.

B10: H1F1 anti-AITR monoclonal antibody (antibody, V domains shown)
VH: QVQLVQSGTQVKMPGASVKVSCKASGYTFDDYGIGWVRQAPGQGLEWMGWISPYTHRTNSSPKLQDRVTMTTDTSTSTAYMELRSLRSDDTAVYYCARDGTYYDFWSGYFDNNAFDIWGQGTLVTVSS
VL: QSVVTQPPSVSAAPGQKVTISCSGSTSNIGNNYVSWYQQLPGTAPKLLIYDNYKRPSGIPDRFSGSKSGTSATLGITGLRTGDEADYFCGTWDSSLNAWVFGGGTKLTVL
notes: Bivalent antibody captured by anti-human IgG(Fc); constant regions not specified for this antibody; also called parent antibody H1F1
B10 had an equilibrium dissociation constant (Kd) in test [6] of 0.789 nM. In addition, the binding result with R12 AA 75-139 is “no binding”.
